Results: patent US20240026383A1 (priority 2020, published 2024)
Where “and” joins values, the source holds several entries; their conditions need not be identical. Identical values can stand only once. Like-named read-outs stand apart in the source and are kept apart here.

Key:
[1] = tested on: lacZ gene from E. coli interrupted with the T4 td intron; assay: LacZ colorimetric (β-galactosidase) assay of T4 td intron exon variants; assay type: cell-based
Text: To investigate the effect of the flanking regions of the T4 td intron on its splicing efficiency and on the expression of the target gene, a series of constructs were made containing the lacZ gene from E. coli with the intron in between amino acids D6 and S7 (see FIG. 5). These amino acids were identified because insertion at this location would be least likely to impact on the structure of the protein. The lacZ gene was used because its functional expression can be easily monitored by a colorimetric assay and because of its high tolerance for modification at the 5′ end. LacZa is interrupted with the T4 td intron and therefore non-functional. Upon self-splicing and excision of the intron, the ORF of LacZa is complete and functional. LacZa encodes for β-galactosidase which is able to hydrolyse ortho-nitrophenyl-β-D-galactopyranoside (ONPG) into β-D-galactose and ortho-nitrophenol (ONP). ONP can be measured through colorimetric assays. Mutations were made by PCR in the 5′ flank as depicted in Table 1.
All position numbers are relative to the 5′ splice site. […] Since there is the possibility of base pairing, the effect of disallowing base pairing was assessed. If there is no interaction between position −7 and the Internal Guide Sequence (IGS), (the sequence at P1 that forms the base pairing with the 5′ exon sequence), and no difference in LacZ activity should be observed. The −7 position was mutated (while all other nucleotides remained WT) to form either a wobble pair or a mismatch. The self-splicing activity of the three intron variants for β-galactosidase activity was assessed after overnight growth.
This is similar to the situation with the −7 position. Therefore, point mutations at the +296 position of the T4 td intron were made to see if they might impact on the splicing activity of the intron. The WT +296 position (mismatch) was mutated by PCR (Table 2) to form either a pair or a wobble pair with the P1 loop. All mutants were assayed for β-galactosidase activity after overnight growth.
This investigated the effect of altering positions −4 to −6 in all possible combinations of pair (P), mismatch (M) and wobble pair (W) (if applicable) whilst preserving all the other bases as WT. With reference to FIGS. 1 and 4A, positions −4 to −6 is GUU (positions −6 to −4 are UUG) and these pair or interact with UGA at positions +12 to +14, respectively.
In FIG. 8 the wild type intron (*) is (sequences shown from 5′ to 3′) PWM/(UUG) and set to 1. All other LacZ activities are a fraction of the wild type activity. PMP reads either UAA or UGA both being stop codons (**). […] A wobble base pair at position −5 negates to a large extent the effect that −6 and −4 have on the splicing. […]

FlgM gene of P. putida = assay: Knock-out of the FlgM gene by homologous recombination with tagged-intron-FnCas12a; assay type: cell-based, Pseudomonas putida; details: T crRNA, 2 mM theophylline
Description: Further genome editing experiments were conducted to knock-out the FlgM gene of P. putida. A repair template (1125 bp) was included on the plasmids bearing approximately 500 bp homologous sides upstream and downstream of the FlgM gene. The repair template was introduced to either of the four tagged-intron-FnCas12a variants along with the T crRNA for counterselection or the NT crRNA as a control. Plasmids were transformed to P. putida through electroporation and the transformed cells were recovered in LB medium for 2 hours before plating on LB agar plates containing 50 μg ml^−1 kanamycin and 2 mM theophylline. Plates were incubated at 30° C. overnight and formed colonies were screened through colony PCR for the knock-out of the FlgM gene. […] Tag1 to Tag4 represent the four different Tagged-intron variant plasmids which contain the T (targeting) or the NT (non-targeting) crRNA. […] On the contrary, transformants bearing plasmids with an NT crRNA were all WT.

LacZa of E. coli MG1655 = assay: FnCas12a targeting assay with Tagged-T4 td intron variants (CFU drop plating); assay type: cell-based; details: T crRNA (LacZ), selection medium with 2 mM theophylline
Text: Four different intron variants (as shown previously in FIG. 8), referred to as “Tag1”, “Tag2”, etc. (Tag1: −4P, −5P, −6P; Tag2: −4W, […] −4W, −5W, −6P; Tag4: −4M, −5P, −6P) are inserted directly after the start codon of the GOI (FnCas12a gene). The 5′ exon sequences of the four different tags are indicated: Tag1: TCCtcaGGT (SEQ ID NO: 7); Tag2: TCCtcgGGT (SEQ ID NO: 8); Tag3: TCCttgGGT (SEQ ID NO: 9); Tag4: TCCtctGGT (SEQ ID NO: 10). The 3′ exon sequence is conserved amongst the 4 different tags and indicated as CTA (SEQ ID NO: 12). The amino acids corresponding to the Tag sequences are indicated with capital bold letters above the Tagged-introns. Intron-less (wild-type) FnCas12a was used as a reference for comparison. Efficiency of targeting of the different Tagged-T4 td intron variants was assessed by using either a LacZa targeting (T) or a non-targeting (NT) crRNA and by comparing the amount of colony forming units (CFUs) of transformed E. coli MG1655 per μg of plasmid used (CFUs μg^−1). CFU was determined by the number of colonies observed.
Electrocompetent E. coli MG1655 were transformed (2.5 kV, 200 Ω, 25 μF) with 10 ng μL^−1 of the respective plasmid and recovered for 1 hour in 500 μL LB medium [10 g L^−1 tryptone (Oxoid), 5 g L^−1 yeast extract (BD), 10 g L^−1 NaCl (Acros)] at 37° C. Then, the recovered culture was serially diluted and drop plated on selective (50 μg mL^−1 kanamycin) LB agar plates in the presence or absence of 2 mM theophylline. The agar plates were incubated at 30° C. for 24 hours and the CFUs were counted.
E. coli MG1655 was transformed with a series of plasmids (listed in Table 4) and serially diluted and drop plated on selective (kanamycin) LB media with or without 2 mM theophylline. […] The effect of the CFU reduction was more apparent for the Tag4-intron where colonies could only be observed at the 10° dilution, followed by Tag3-intron (10^−1) then Tag2-intron (10^−2) and finally Tag1-intron ([…]).

[2] = tested on: LacZ gene of E. coli MG1655; assay: SIBR-Cas genome editing (HR and CRISPR-Cas counterselection) of LacZ; assay type: cell-based; details: for unbiased editing efficiency (LacZ deletion by PCR of randomly selected colonies): X-gal omitted from the medium; for editing efficiency: percentage of white colonies from total CFUs mL-1: blue/white screening, LacZ targeting, induced after 1 hour recovery
Text: For efficient genome editing in bacteria, HR should precede CRISPR-Cas counterselection. To assess whether tight control over CRISPR-Cas targeting could bolster the efficiency of CRISPR-Cas mediated genome editing by allowing more time for HR to occur, we used SIBR-Cas and targeted the LacZ gene of E. coli MG1655 for knock-out through HR and CRISPR-Cas counterselection using a blue/white screening colony assay. To facilitate HR, we added 500 bp up- and down-stream homology arms to the plasmids expressing the four SIBR-Cas (Int1-4) and WT-FnCas12a variants that target the LacZ gene. After 1 hour recovery, we induced the expression of the SIBR-Cas variants to counterselect the WT from the mutant colonies.
Since disruption of LacZ can also be achieved through non-HR mediated approaches (spontaneous mutations or occasional error-prone DNA repair following DNA cleavage by Cas12a), not all gene deletions can be screened phenotypically. Therefore, we repeated our experiment, but X-gal was omitted from the medium to eliminate the possibility of false-positives. Randomly selected colonies that were obtained were screened by PCR for LacZ deletion showing a 0%, 0%, 29% and 38% editing efficiency for Int1, Int2, Int3 and Int4 SIBR-Cas variants, respectively (FIG. 24C). […] The observed decrease in editing efficiency (compared to the blue/white screening) might be attributed to spontaneous LacZ mutations that escape CRISPR-Cas counterselection. Nevertheless, a high editing efficiency (38%) was observed when SIBR-Cas Int4 was used without the use of recombinases or any other complex systems.

B1: Tag1: theophylline dependent T4 td intron after ATG of FnCas12a; −4P, −5P, −6P; 5′ exon TCCtcaGGT; SEQ ID NO: 49 (nucleic acid)
DNA: TCCTCAGGTTAATTGAGGCCTGAGTATAAGGTGACTTATACTTGTAATCTATCTAAACGGGGAACCTCTCTAGTAGACAATCCCGTGCTAAATTGATACCAGCATCGTCTTGATGCCCTTGGCAGCATAAATGCCTAACGACTATCCCTTTGGGGAGTAGGGTCAAGTGACTCGAAACGATAGACAACTTGCTTTAACAAGTTGGAGATATAGTCTGCTCTGCATGGTGACATGCAGCTGGATATAATTCCGGGGTAAGATTAACGACCTTATCTGAACATAATGCTA
modifications: Tag1 T4 td intron with the theophylline aptamer
self-splicing activity ranking of the Tag/Int variants [1]: most “tight”
self-splicing activity ranking of the Tag/Int variants ([1]; listed as Int1): worst
editing efficiency (FlgM knock-out by colony PCR) (FlgM gene of P. putida): 0%
dilution at which colonies could be observed (LacZa of E. coli MG1655): 10^−2
unbiased editing efficiency (LacZ deletion by PCR of randomly selected colonies) [2]: 0%
editing efficiency: percentage of white colonies from total CFUs mL-1 [2]: 0%

B2: Tag3: theophylline dependent T4 td intron tag; −4W, −5W, −6P; 5′ exon TCCttgGGT; SEQ ID NO: 47 (nucleic acid)
DNA: TCCTTGGGTTAATTGAGGCCTGAGTATAAGGTGACTTATACTTGTAATCTATCTAAACGGGGAACCTCTCTAGTAGACAATCCCGTGCTAAATTGATACCAGCATCGTCTTGATGCCCTTGGCAGCATAAATGCCTAACGACTATCCCTTTGGGGAGTAGGGTCAAGTGACTCGAAACGATAGACAACTTGCTTTAACAAGTTGGAGATATAGTCTGCTCTGCATGGTGACATGCAGCTGGATATAATTCCGGGGTAAGATTAACGACCTTATCTGAACATAATGCTA
modifications: Tag3 T4 td intron with the theophylline aptamer
editing efficiency (FlgM knock-out by colony PCR) (FlgM gene of P. putida): 36.6%
dilution at which colonies could be observed (LacZa of E. coli MG1655): 10^−1
unbiased editing efficiency (LacZ deletion by PCR of randomly selected colonies) ([2]; listed as Int3): 29%±18.04% and 29%
editing efficiency: percentage of white colonies from total CFUs mL-1 ([2]; listed as Int3): 49%±8.75% and 49%

B3: Tag2: theophylline dependent T4 td intron tag; −4W, −5P, −6P; 5′ exon TCCtcgGGT; SEQ ID NO: 46 (nucleic acid)
DNA: TCCTCAGGTTAATTGAGGCCTGAGTATAAGGTGACTTATACTTGTAATCTATCTAAACGGGGAACCTCTCTAGTAGACAATCCCGTGCTAAATTGATACCAGCATCGTCTTGATGCCCTTGGCAGCATAAATGCCTAACGACTATCCCTTTGGGGAGTAGGGTCAAGTGACTCGAAACGATAGACAACTTGCTTTAACAAGTTGGAGATATAGTCTGCTCTGCATGGTGACATGCAGCTGGATATAATTCCGGGGTAAGATTAACGACCTTATCTGAACATAATGCTA
modifications: Tag2 T4 td intron with the theophylline aptamer
editing efficiency (FlgM knock-out by colony PCR) (FlgM gene of P. putida): 39.3%
dilution at which colonies could be observed (LacZa of E. coli MG1655): 10^−2
unbiased editing efficiency (LacZ deletion by PCR of randomly selected colonies) [2]: 0%
editing efficiency: percentage of white colonies from total CFUs mL-1 ([2]; listed as Int2): 1%±0.35% and 1%

B4: Tag4: theophylline dependent T4 td intron tag; −4M, −5P, −6P; 5′ exon TCCtctGGT; SEQ ID NO: 48 (nucleic acid)
DNA: TCCTCTGGTTAATTGAGGCCTGAGTATAAGGTGACTTATACTTGTAATCTATCTAAACGGGGAACCTCTCTAGTAGACAATCCCGTGCTAAATTGATACCAGCATCGTCTTGATGCCCTTGGCAGCATAAATGCCTAACGACTATCCCTTTGGGGAGTAGGGTCAAGTGACTCGAAACGATAGACAACTTGCTTTAACAAGTTGGAGATATAGTCTGCTCTGCATGGTGACATGCAGCTGGATATAATTCCGGGGTAAGATTAACGACCTTATCTGAACATAATGCTA
modifications: Tag4 T4 td intron with the theophylline aptamer
self-splicing activity ranking of the Tag/Int variants [1]: most “loose”
self-splicing activity ranking of the Tag/Int variants ([1]; listed as Int4): best splicer
dilution at which colonies could be observed (LacZa of E. coli MG1655): 10°
unbiased editing efficiency (LacZ deletion by PCR of randomly selected colonies) ([2]; listed as Int4): 38%±6.41% and 38%
editing efficiency: percentage of white colonies from total CFUs mL-1 ([2]; listed as Int4): 80%±5.57% and 80%
